These results are taken from paper PMC2690590, “Functional recombinant MHC class II molecules and high-throughput peptide-binding assays” (Immunome Research, 2009).

The EC50 is the concentration giving half of the maximal effect. A word on the IC50: it is the concentration at which inhibition is half-maximal. What is called Kd is the concentration at which binding is half-saturated.

Assay [1] has as its target ^125I labeled (Y)HA306–318 (influenza). The assay is described as follows: radioligand binding.
Assay [2] addresses DR1GrpE: DR1 α chain 1–181 and β chain 1–190 fused C-terminally to GrpE, not biotinylated (human). Nature of the assay: AlphaScreen or HTRF. For orientation: Bead proximity is the source of the signal in Alpha formats.
Assay [3] concerns the target DR2a (DRA*0101/DRB5*0101) with non-biotinylated β chain, competitive LOCI assay (human). Nature of the assay: AlphaScreen or HTRF.
Assay [4] concerns the target DR2a (DRA*0101/DRB5*0101), biotinylated, direct LOCI assay at pH 6 (human). The assay is described as follows: AlphaScreen or HTRF.
Assay [5] has as its target DRB3*0301: DRA*0101/DRB3*0301 (human). The assay is described as follows: AlphaScreen or HTRF.
Assay [6] concerns the target DRB1*0813: DRA*0101/DRB1*0813 (human). Nature of the assay: AlphaScreen or HTRF.
Assay [7] concerns the target DP401: DPA1*0103/DPB1*0401 (human). The assay is described as follows: AlphaScreen or HTRF.
In assay [8] the target is DR4 (DRA*0101/DRB1*0401), biotinylated, LOCI assay (human). Nature of the assay: AlphaScreen or HTRF.
Assay [9] deals with I-E^d (mouse MHC class II) (mouse) (UniProt P01904). The assay is described as follows: AlphaScreen or HTRF.

Regarding “DR1: DRA*0101(1–191)/DRB1*0101(1–198) (complex)”, the EC50 in [1] came out at 20 nM.
Take “6xH Influenza A (PR8) HA 109–119 peptide …”: the results for the IC50 in assay [2] and in assay [3] were 325 nM and 23 nM, respectively. The Kd in assay [4] stood at 9 nM; in assay [5] it was 1530 nM; in assay [6], 181 nM; in assay [7] it was 1 nM; in [8], 1870 nM; in assay [9], 984 nM.
